From IntAct's records for PubMed 19696741 come the findings set out here.

B1: Carboxypeptidase Y (Saccharomyces cerevisiae), P00729 (parent)
chain: MKAFTSLLCGLGLSTTLAKAISLQRPLGLDKDVLLQAAEKFGLDLDLDHLLKELDSNVLDAWAQIEHLYPNQVMSLETSTKPKFPEAIKTKKDWDFVVKNDAIENYQLRVNKIKDPKILGIDPNVTQYTGYLDVEDEDKHFFFWTFESRNDPAKDPVILWLNGGPGCSSLTGLFFELGPSSIGPDLKPIGNPYSWNSNATVIFLDQPVNVGFSYSGSSGVSNTVAAGKDVYNFLELFFDQFPEYVNKGQDFHIAGESYAGHYIPVFASEILSHKDRNFNLTSVLIGNGLTDPLTQYNYYEPMACGEGGEPSVLPSEECSAMEDSLERCLGLIESCYDSQSVWSCVPATIYCNNAQLAPYQRTGRNVYDIRKDCEGGNLCYPTLQDIDDYLNQDYVKEAVGAEVDHYESCNFDINRNFLFAGDWMKPYHTAVTDLLNQDLPILVYAGDKDFICNWLGNKAWTDVLPWKYDEEFASQKVRNWTASITDEVAGEVKSYKHFTYLRVFNGGHMVPFDVPENALSMVNEWIHGGFSL
partner: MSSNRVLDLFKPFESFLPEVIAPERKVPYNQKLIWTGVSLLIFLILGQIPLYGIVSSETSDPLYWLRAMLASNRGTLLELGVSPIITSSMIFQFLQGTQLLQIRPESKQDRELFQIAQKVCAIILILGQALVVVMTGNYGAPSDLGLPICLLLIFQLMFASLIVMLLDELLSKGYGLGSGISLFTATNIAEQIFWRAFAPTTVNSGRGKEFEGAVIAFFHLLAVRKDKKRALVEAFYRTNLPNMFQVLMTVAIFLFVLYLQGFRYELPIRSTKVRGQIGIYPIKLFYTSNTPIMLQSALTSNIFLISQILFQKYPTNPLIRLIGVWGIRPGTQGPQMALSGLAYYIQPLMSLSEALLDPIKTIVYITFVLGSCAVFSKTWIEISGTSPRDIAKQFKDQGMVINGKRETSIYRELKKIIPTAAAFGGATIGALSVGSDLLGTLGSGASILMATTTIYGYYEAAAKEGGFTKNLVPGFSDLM

Variants of B1 are the subject of the experiment. The settings on record: with sc61a_yeast SEC61, P32915.
With G255R, the “effect of a mutation on the interaction” value is listed as “increasing interaction”.
